Measurements: patent publication US11266675

Biological target: Heat shock cognate protein 70 (Hsc70) (UniProt P11142)
Sequence (P11142 2-646): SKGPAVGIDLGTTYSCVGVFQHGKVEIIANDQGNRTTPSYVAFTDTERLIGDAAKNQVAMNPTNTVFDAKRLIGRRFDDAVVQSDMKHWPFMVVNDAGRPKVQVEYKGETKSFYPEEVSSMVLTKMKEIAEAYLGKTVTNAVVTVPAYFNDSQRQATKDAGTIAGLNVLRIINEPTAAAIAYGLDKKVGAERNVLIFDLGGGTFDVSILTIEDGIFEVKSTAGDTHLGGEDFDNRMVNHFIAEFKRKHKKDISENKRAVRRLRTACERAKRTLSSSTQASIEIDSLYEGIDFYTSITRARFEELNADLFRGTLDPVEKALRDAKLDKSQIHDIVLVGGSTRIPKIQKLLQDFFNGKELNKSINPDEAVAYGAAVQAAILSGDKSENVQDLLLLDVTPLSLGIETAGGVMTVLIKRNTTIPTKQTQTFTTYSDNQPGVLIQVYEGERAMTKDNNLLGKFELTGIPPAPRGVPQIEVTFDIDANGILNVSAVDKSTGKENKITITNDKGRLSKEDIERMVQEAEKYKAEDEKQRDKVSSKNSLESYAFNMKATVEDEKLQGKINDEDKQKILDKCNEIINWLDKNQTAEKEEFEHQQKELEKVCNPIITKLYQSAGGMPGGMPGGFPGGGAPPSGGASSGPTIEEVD

With “recombinant His-tagged 2A^pro (2A protease of EV-A71)” the “cleavage of eIF4G by recombinant 2A^pro in vitro (immunoblot)” value was “the cleaved eIF4G was up-regulated in Hsc70 overexpressed cells, indicating an increase of 2A^pro proteolytic activity upon increased Hsc70 level”.
